Experimental data from patent publication US9346871B2, “Engineered CXCL12 alpha locked dimer polypeptide” (The Medical College of Wisconsin, priority 2008, dated 2016).
Substitutions are numbered along the chain they refer to. Numbers in names are those of the source. Entries after “also recorded” stand apart in the source; their conditions may differ. Like-named read-outs stand apart in the source and are kept apart here.

B1: R20A: wild-type CXCL12-α with R20 replaced by alanine (protein)
chain: KPVSLSYRCPCRFFESHVAAANVKHLKILNTPNCACQIVARLKNNNRQVCIDPKLKWIQEYLEKCLNK
B2: V39A: CXCL12-α mutant V39A (protein)
chain: B1 chain with A20R, V39A
B3: K27A: CXCL12-α mutant, alanine at K27 (protein)
chain: B1 chain with A20R, K27A
B4: E60A: CXCL12-α mutant E60A (protein)
chain: B1 chain with A20R, E60A
B5: R47E: CXCL12-α mutant, arginine 47 replaced by glutamic acid (protein)
chain: B1 chain with A20R, R47E
B6: R47A: CXCL12-α mutant R47A (protein)
chain: B1 chain with A20R, R47A
B7: K27E: CXCL12-α mutant, glutamic acid at K27 (protein)
chain: B1 chain with A20R, K27E
B8: H25R: dimerization-impaired, preferentially monomeric CXCL12-α variant (protein)
chain: B1 chain with A20R, H25R
modifications: ends and bridges not checked
notes: dimerization-impaired, preferentially monomeric CXCL12-α variant
B9: R41A: CXCL12-α mutant R41A (protein)
chain: B1 chain with A20R, R41A
B10: K64A: CXCL12-α mutant K64A (protein)
chain: B1 chain with A20R, K64A
B11: V49A: CXCL12-α mutant V49A (protein)
chain: B1 chain with A20R, V49A
B12: E63A: CXCL12-α mutant E63A (protein)
chain: B1 chain with A20R, E63A

Columns and labels:
[1] = Pulsed-field gradient NMR translational diffusion, CXCL12-α monomer-dimer equilibrium; type: physicochemical; details: 10, 50 and 150 μM protein
Description: FIG. 1. […] The lines connecting the cysteines show where the intra- and intermolecular disulfide bonds are. […] Diffusion coefficients (Ds) of wild-type CXCL12 (black circles) in 20 mM sodium phosphate at pH 7.4 plotted versus chemokine concentration. […] D) N-terminal peptides corresponding to the first thirty-eight amino acids of CXCR4 are illustrated.

Heparin binding = experiment: Heparin binding
Source text: Further, in addition to binding CXCR4, CXCL12 also binds to heparin found in the extracellular matrix on cell surfaces. The inventors have shown that the CXCL12α2 locked dimer of the present invention also binds heparin. Amino acid substitutions in CXCL12, including K24S, K27S, or K24S/K27S can prevent heparin binding and increase the half-life of CXCL12 in vivo; therefore, similar mutations in CXCL12α2 would likely prevent heparin binding and increase the in vivo half-life of the dimer.

CXCR4 = biological target: T1, CXCR4 (Homo sapiens, UniProt P61073); experiment: Ca2+-flux assay of CXCR4 activation in THP-1 cells; type: cell-based
T1 construct: a Ca^2+-flux assay on CXCR4-expressing THP-1 cells; host or cells: THP-1
T1 sequence (P61073 whole entry): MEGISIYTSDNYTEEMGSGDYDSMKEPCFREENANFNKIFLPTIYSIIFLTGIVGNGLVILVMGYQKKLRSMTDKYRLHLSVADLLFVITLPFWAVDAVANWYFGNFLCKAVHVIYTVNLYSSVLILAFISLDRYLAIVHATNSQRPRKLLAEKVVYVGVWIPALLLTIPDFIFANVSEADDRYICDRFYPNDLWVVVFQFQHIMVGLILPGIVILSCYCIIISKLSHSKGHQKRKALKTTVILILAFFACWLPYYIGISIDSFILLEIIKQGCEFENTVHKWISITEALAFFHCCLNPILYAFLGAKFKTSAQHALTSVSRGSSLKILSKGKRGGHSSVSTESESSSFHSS
Source text: (§1) The Protein Data Bank (PDB), under accession numbers 2K01, 2K04, 2K03 and 2K05 contain coordinates for these structural models. Restraints employed for structure determination have been deposited in the Biological Magnetic Resonance Bank, accession numbers 15633, 15636, 15635 and 15637. […] THP-1 cells are a CXCR4-expressing monocyte leukemia cell line and were obtained from ATCC.
The inventors monitored activation of CXCR4 using THP-1 cells and a similar Ca^2+-flux assay.

HIV-1 = details: compared with wild-type chemokine
Source text: Certain strains of HIV (X4 or dual tropic) utilize CXCR4 as a co-receptor, and this interaction is critical for fusion of the viral and T cell membranes in the process of HIV entry.

THP-1 cells = experiment: Transwell chemotaxis assay of THP-1 cells; type: cell-based
Source text: FIG. 5. […] C) Schematic illustration of the bell-shaped profile for CXCL12-α-mediated chemotaxis arising from changes in relative concentrations of chemokine monomer and dimer.
as §1

CXCL12-α = biological target: T2, CXCL12-α (Homo sapiens, UniProt P48061); experiment: Binding of CXCR4 N-terminal p38 peptides to CXCL12-α; details: read-out: apparent Kd
T2 construct: made in house; host or cells: E. coli
T2 sequence (P48061 22-89 limits assumed): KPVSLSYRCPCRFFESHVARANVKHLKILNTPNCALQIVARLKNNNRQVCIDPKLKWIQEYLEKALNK

[2] = Ca2+-flux, CXCR4-expressing THP-1 cells

Molecule | EC50 (CXCR4; [2]) [nM] | other results
CXCL12-α2: covalently locked dimer comprising two CXCL12 L36C/A65C sequences (SEQ ID NO: 1) | – | diffusion coefficient Ds [1]: 1.08-1.09 ×10^−6 cm^2s^−1; heparin binding (Heparin binding): binds heparin; CXCR4 functional character (CXCR4; detection of secondary messenger calcium): partial CXCR4 agonist; predicted inhibition of HIV-1 entry into human T cells (HIV-1): more effective at lower concentrations; chemotactic response (THP-1 cells): failed to attract cells; also recorded: does not chemoattract THP-1 cells
CC[C@H](C)[C@H](NC(=O)CNC(=O)[C@H](CCC(=O)O)NC(=O)[C@H](CCSC)NC(=O)[C@H](CO)NC(=O)CN)C(=O)N[C@@H](CO)C(=O)N[C@H](C(=O)N[C@@H](Cc1ccc(OS(=O)(=O)O)cc1)C(=O)N[C@H](C(=O)N[C@@H](CO)C(=O)N[C@@H](CC(=O)O)C(=O)N[C@@H](CC(N)=O)C(=O)N[C@@H](Cc1ccc(OS(=O)(=O)O)cc1)C(=O)N[C@H](C(=O)N[C@@H](CCC(=O)O)C(=O)N[C@@H](CCC(=O)O)C(=O)N[C@@H](CCSC)C(=O)NCC(=O)N[C@@H](CO)C(=O)NCC(=O)N[C@@H](CC(=O)O)C(=O)N[C@@H](Cc1ccc(OS(=O)(=O)O)cc1)C(=O)N[C@@H](CC(=O)O)C(=O)N[C@@H](CO)C(=O)N[C@@H](CCSC)C(=O)N[C@@H](CCCCN)C(=O)N[C@@H](CCC(=O)O)C(=O)N1CCC[C@H]1C(=O)N[C@@H](C)C(=O)N[C@@H](Cc1ccccc1)C(=O)N[C@@H](CCCNC(=N)N)C(=O)N[C@@H](CCC(=O)O)C(=O)N[C@@H](CCC(=O)O)C(=O)N[C@@H](CC(N)=O)C(=O)N[C@@H](C)C(=O)N[C@@H](CC(N)=O)C(=O)N[C@@H](Cc1ccccc1)C(=O)N[C@@H](CC(N)=O)C(=O)N[C@@H](CCCCN)C(=O)O)[C@@H](C)O)[C@@H](C)O)[C@@H](C)CC [p38-sY3] | – | Kd (CXCL12-α): 200 ± 200 nM
B1 | 4.3 ± 0.6 | EC50, CXCR4 activation (CXCR4; [2]): no change in EC50
B2 | 27.1 | –
B3 | 10.1 | –
B4 | 4.1 ± 0.1 | –
B5 | 654 | –
B6 | 14.1 | –
B7 | 16.8 | –
B8 | 5.1 ± 0.9 | chemotactic response (THP-1 cells; listed as CXCL12-α (H25R)): induces chemotaxis over a broader range; chemotactic response (THP-1 cells; listed as CXCL12-α(H25R)): promotes cell migration much more strongly than the wild-type chemokine at higher concentrations
B9 | 4.3 ± 0.9 | –
B10 | 5 ± 1.1 | –
B11 | 8.6 ± 2.4 | –
B12 | 3.7 ± 0.8 | –
